Data published in patent US20250179143A1, “SYSTEMS AND METHODS FOR CHAPERONE-MEDIATED LIGAND EXCHANGE ON MHC-I AND MHC-RELATED MOLECULES USING CHICKEN TAPBPR” (priority 2022, published 2025).

B1: moTAPBPR: recombinant luminal domain of mouse TAPBPR, XP_030111162.1 (protein)
chain: TDPPTAPTTAERQRQPTDIILDCFLVTEDRHRGAFASSGDRERALLVLKQVPVLDDGSLEGITDFQGSTETKQDSPVIFEASVDLVQIPQAEALLHADCSGKAVTCEISKYFLQARQEATFEKAHWFISNMQVSRGGPSVSMVMKTLRDAEVGAVRHPTLNLPLSAQGTVKTQVEFQVTSETQTLNHLLGSSVSLHCSFSMAPGLDLTGVEWRLQHKGSGQLVYSWKTGQGQAKRKGATLEPEELLRAGNASLTLPNLTLKDEGNYICQISTSLYQAQQIMPLNILAPPKIQLHLANKDPLPSLVCSIAGYYPLDVGVTWIREELGGIPAQVSGASFSSLRQSTMGTYSISSTVMADPGPTGATYTCQVAHVSLEEPLTTSMRVLPNPEQRG
B2: hTAPBPR^KRQ: human TAPBPR mutant R105K, K211R, R270Q (protein)
chain: KPHPAEGQWRAVDVVLDCFLAKDGAHRGALASSEDRARASLVLKQVPVLDDGSLEDFTDFQGGTLAQDDPPIIFEASVDLVQIPQAEALLHADCSGKEVTCEISKYFLQMTETTVKTAAWFMANMQVSGGGPSISLVMKTPRVTKNEALWHPTLNLPLSPQGTVRTAVEFQVMTQTQSLSFLLGSSASLDCGFSMAPGLDLISVEWRLQHRGRGQLVYSWTAGQGQAVRKGATLEPAQLGMARDASLTLPGLTIQDEGTYICQITTSLYQAQQIIQLNIQASPKVRLSLANEALLPTLICDIAGYYPLDVVVTWTREELGGSPAQVSGASFSSLRQSVAGTYSISSSLTAEPGSAGATYTCQVTHISLEEPLGASTQVVPPERR
B3: chTapasin: recombinant luminal domain of chicken Tapasin, a homolog of TAPBPR (protein)
chain: QFRVEDAASPPPPPAPVRCALLEGVGRGGGLPGGGNARPALLRFGGDAETPPEPGPEPEVTFNVSDPWGTLTPLGVPPRTPPSCELNPTNPQTGSDPWSRPLHPDARSPPTAGGQWWVAAVGTPQYGVTALLQGGMGTEGTITAAVALAVLTHTPTLRARVGSPIHLHCAFAAPPSSFVLEWRHQNRGAGRVLLAYDSSTARAPRAHPGAELLLGTRDGDGVTAVTLRLARPSPGDEGTYICSVFLPHGHTQTVLQLHVFEPPKVTLSPKNLVVAPGTSAELRCHVSGFYPLDVTVTWQRRAGGSGTSQSPRDTVMDSWTSGHRQAADGTYSRTAAARLIPARPQHHGDIYSCVVTHTALAKPMRVSVRLLLAGTEGPHLEDIT

Columns and labels:
[1] = DSF thermal stability of chaperone proteins; settings: DSF of the recombinant chaperone protein
HLA-A*02:01 [2] = molecular target: T1, HLA-A*02:01 (Homo sapiens, UniProt P04439, D140Y/D185E/D98H/E176V/E277Q/G131W/G231S/I119V/I121R/I166T/I218V/L300P/L318F/N151K/N90K/P208A/P217A/Q86G/Q94H/R138H/R169H/T345S); test: Native gel shift assay (EMSA); format: binding; settings: UV-irradiated HLA-A*02:01/KILGFVFJV, 1:1 molar ratio
Method: (§1) For native gel shift assays, purified MHC-I molecules refolded with photo-labeled peptides (pMHC-I) and TAPBPR proteins were loaded into polyacrylamide gels alone at 7 μM concentration and as mixtures. For the mixtures, 1:1 molar ratio of pMHC-I and TAPBPR samples at 7 μM each were prepared and incubated at room temperature (RT) for 1 hour. The samples were then UV-irradiated for another hour at 365 nm and were run at 90 V for 5.5 hours on a 12% polyacrylamide gel. Staining was performed using InstantBlue (Novus Biologicals).
as §1, with “Native gel” for “For native gel”, “shift assay. Purified” for “shift assays, purified”, “mixtures, a” for “mixtures,”, “each was” for “each were”, “at RT” for “at room temperature (RT)”

[3] = test system: 96 different HLA allotypes on single antigen HLA class I beads; test: SAB screen, all beads; format: binding, human; settings: across HLA allotypes; FIG. 23e
Method: For the Single Antigen Bead Screen, 7 μM of TAPBPR in tetramers were mixed with 4 μL of the LABScreen single antigen HLA-I bead suspension (OneLambda, Inc., CA, USA) in a 96-well plate. The samples were incubated for 1 hour, 550 rpm at RT, washed four times in Wash Buffer (OneLambda, Inc., CA, USA) to remove excess of tetramers and re-suspended in 1×PBS buffer (pH 7.2). For the negative controls, beads were incubated with the Anti-HLA Class I antibody W6/32 (Abcam, ab22432) for 30 min, 550 rpm at RT and washed three times prior tetramer addition. To test the levels of peptide loaded MHC-I molecules on the beads, Applicants used the same W6/32 antibody and the secondary anti-mouse PE-conjugated antibody (Abcam, ab97024) for detection. The levels of TAPBPR bound to the beads were measured using the Luminex 100 Liquid Array Analyzer System and the results were analyzed in GraphPad Prism v7.
SABs screen. 7 μM of TAPBPR in tetramers were mixed with 4 μL of the LABScreen single antigen HLA-I bead suspension (OneLambda, Inc., CA, USA) in a 96-well plate. […] The levels of TAPBPR bound to the beads were measured using the Luminex 100 Liquid Array Analyzer System and the results were analyzed in GraphPad Prism v9.

HLA-A*01:01 = HLA-A*01:01 (Homo sapiens, UniProt P04439, A114D/A174V/A182V/D101N/D185E/E176A/E190D/L180R/Q94H/R68K/S129P/T187R/V100A/V91M/W191G); test: Fluorescence polarization (FP) peptide exchange; settings: HLA-A*01:01, chaperone at 5 μM
HLA-A*02:01 [4] = molecular target: T1, HLA-A*02:01; test: Fluorescence polarization (FP) peptide exchange; settings: HLA-A*02:01/KILGFVFβFV, […]
HLA-B*08:01 = HLA-B*08:01 (Homo sapiens, UniProt P01889, A93T/A95T/D138N/E176V/E187T/K202T/Q94N/R180D/S35A/V36M/Y33D/Y91F); test: Fluorescence polarization (FP) peptide exchange; settings: based on DSF or FP assays
HLA-A*02:06 = molecular target: T2, HLA-A*02:06 (Homo sapiens, UniProt P04439, D140Y/D185E/D98H/E176V/E277Q/F33Y/G131W/G231S/I119V/I121R/I166T/I218V/L300P/L318F/N151K/N90K/P208A/P217A/Q86G/Q94H/R138H/R169H/T345S); test: Fluorescence polarization (FP) peptide exchange; format: biochemical; settings: pHLA-A*02:06
T2 construct: made in house

HLA-A*02:01 [5] = molecular target: T1, HLA-A*02:01; test: SPR; settings: peptide-deficient (empty) HLA-A*02:01
HLA-B*37:01 = HLA-B*37:01 (Homo sapiens, UniProt P01889, A329T/A93T/A95T/C349S/D138N/D201E/D98Y/E176V/E187T/E204Q/E69T/G107R/H137Y/K202T/L119I/N104T/N87E/Q94N/R106L/R155S/R180D/S101D/S121R/V306I/Y123S/Y140F/Y33H/Y91S); test: SAB screen; format: binding; settings: HLA-B*37:01 beads; FIG. 41

Molecule	Tm [1]	TAPBPR/MHC-I complex formation (HLA-A*02:01 [2])	MFI ratios [3]	apparent rate constant kapp (HLA-A*01:01)	k2overall, fold higher than hTAPBPR (HLA-A*02:01 [4])	Peptide exchange (HLA-B*08:01)	k2overall, fold improved compared to hTAPBPR (HLA-A*02:06)	Kd (HLA-A*02:01 [5])	binding of Tapasin tetramers (MFI) (HLA-B*37:01)
B1	56 °C	formed a new band	less than 5.8	–	–	–	–	–	–
B2	52.3 °C	–	–	0.00013 s⁻¹	approximately 60 fold	failed to catalyze peptide exchange	approximately 9 fold	243 nM	–
B3	58 °C	–	–	–	–	–	–	–	tight binding
